Measured values as given in patent US20230365714A1 (published 2023).

Target: T1, his-tagged ROR2 extracellular domain (ROR2-ECD, G&P Biosciences, cat. no. FCL0192) (human, UniProt Q01974 34-403)
T1 construct: Bought protein; also called human ROR2-ECD; recombinant human ROR2-ECD; not shown: his tag
Test: BLI (Octet), antibody on anti-human IgG Fc sensor, ROR2-ECD 1.56-100 nM as analyte

T1 sequence (Q01974 34-403): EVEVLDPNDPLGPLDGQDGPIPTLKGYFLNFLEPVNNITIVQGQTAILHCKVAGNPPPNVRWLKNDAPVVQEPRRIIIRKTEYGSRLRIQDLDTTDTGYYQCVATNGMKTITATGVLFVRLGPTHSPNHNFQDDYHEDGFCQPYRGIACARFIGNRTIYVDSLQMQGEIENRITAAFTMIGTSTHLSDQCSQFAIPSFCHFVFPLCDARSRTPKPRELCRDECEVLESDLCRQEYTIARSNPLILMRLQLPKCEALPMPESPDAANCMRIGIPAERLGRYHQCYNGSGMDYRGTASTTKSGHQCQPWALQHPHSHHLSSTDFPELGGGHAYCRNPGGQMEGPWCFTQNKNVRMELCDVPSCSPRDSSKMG

| Kd [nM] | koff [s⁻¹] | kon [M⁻¹ s⁻¹] | Binder |
| --- | --- | --- | --- |
| 1.8 | 0.001 | 560000 | IgG1-ROR2-A-HC3LC2-FEAR (antibody, V domains shown, Humanized variant) VH: EVQLLESGGGLVQPGGSLRLSCTVSGFSLSSYSMSWVRQAPGKGLEWIGVIYVNSKTWYANWAKGRFTISKTSTTVYLQMNSLRAEDTATYYCARGDAGYTTNSWLWGQGTLVTVSS VL: AFELTQSPSSLSASVGDRVTITCQASESIDNYLSWYQQKPGKAPKLLIYQAFKLASGVPSRFRGSGSGTDFTLTISSLQSEDFATYYCQSYSGISTTAFGGGTEVVIK |
| 4.7 | 0.0025 | 540000 | IgG1-ROR2-A-HC7LC2-FEAR (antibody, V domains shown, Humanized variant) VH: EVQLLESGGGLVQPGGSLRLSCAASGFSLSSYSMSWVRQAPGKGLEWIGVIYVNSKTWYADSVKGRFTISKDNSKNTVYLQMNSLRAEDTATYYCARGDAGYTTNSWLWGQGTLVTVSS VL: AFELTQSPSSLSASVGDRVTITCQASESIDNYLSWYQQKPGKAPKLLIYQAFKLASGVPSRFRGSGSGTDFTLTISSLQSEDFATYYCQSYSGISTTAFGGGTEVVIK |
| 1.8 | 0.001 | 550000 | IgG1-ROR2-A-HC3LC3-FEAR (antibody, Humanized variant) heavy: EVQLLESGGGLVQPGGSLRLSCTVSGFSLSSYSMSWVRQAPGKGLEWIGVIYVNSKTWYANWAKGRFTISKTSTTVYLQMNSLRAEDTATYYCARGDAGYTTNSWLWGQGTLVTVSSASTKGPSVFPLAPSSKSTSGGTAALGCLVKDYFPEPVTVSWNSGALTSGVHTFPAVLQSSGLYSLSSVVTVPSSSLGTQTYICNVNHKPSNTKVDKRVEPKSCDKTHTCPPCPAPEFEGGPSVFLFPPKPKDTLMISRTPEVTCVVVAVSHEDPEVKFNWYVDGVEVHNAKTKPREEQYNSTYRVVSVLTVLHQDWLNGKEYKCKVSNKALPAPIEKTISKAKGQPREPQVYTLPPSREEMTKNQVSLTCLVKGFYPSDIAVEWESNGQPENNYKTTPPVLDSDGSFFLYSRLTVDKSRWQQGNVFSCSVMHEALHNHYTQKSLSLSPGK VL: AFELTQSPSSLSASVGDRVTITCQASESIDNYLSWYQQKPGKAPKLLIYQAFKLASGVPSRFRGSGSGTDFTLTISSLQPEDFATYYCQSYSGISTTAFGGGTKVEIK |
| 2.1 | 0.0011 | 540000 | IgG1-ROR2-A-HC4LC1-FEAR (antibody, V domains shown, Humanized variant) VH: EVQLLESGGGLVQPGGSLRLSCTVSGFSLSSYSMSWVRQAPGKGLEWIGVIYVNSKTWYANWAKGRFTISKDNSKNTVYLQMNSLRAEDTATYYCARGDAGYTTNSWLWGQGTLVTVSS VL: AFELTQSPSSLSASVGDRVTITCQASESIDNYCSWYQQKPGKAPKLLIYQAFKLASGVPSRFRGSGSGTDFTLTISSLQSEDFATYYCQSYSGISTTAFGGGTEVVIK |
| 1.6 | 0.00095 | 590000 | IgG1-ROR2-A-HC4LC2-FEAR (antibody, V domains shown, Humanized variant) VH: EVQLLESGGGLVQPGGSLRLSCTVSGFSLSSYSMSWVRQAPGKGLEWIGVIYVNSKTWYANWAKGRFTISKDNSKNTVYLQMNSLRAEDTATYYCARGDAGYTTNSWLWGQGTLVTVSS VL: AFELTQSPSSLSASVGDRVTITCQASESIDNYLSWYQQKPGKAPKLLIYQAFKLASGVPSRFRGSGSGTDFTLTISSLQSEDFATYYCQSYSGISTTAFGGGTEVVIK |
| 1.6 | 0.00088 | 550000 | IgG1-ROR2-A-HC3LC1-FEAR (antibody, V domains shown, Humanized variant) VH: EVQLLESGGGLVQPGGSLRLSCTVSGFSLSSYSMSWVRQAPGKGLEWIGVIYVNSKTWYANWAKGRFTISKTSTTVYLQMNSLRAEDTATYYCARGDAGYTTNSWLWGQGTLVTVSS VL: AFELTQSPSSLSASVGDRVTITCQASESIDNYCSWYQQKPGKAPKLLIYQAFKLASGVPSRFRGSGSGTDFTLTISSLQSEDFATYYCQSYSGISTTAFGGGTEVVIK |
| 1.9 | 0.0011 | 550000 | IgG1-ROR2-A-HC5LC4-FEAR (antibody, Humanized variant) heavy: EVQLLESGGGLVQPGGSLRLSCAASGFSLSSYSMSWVRQAPGKGLEWIGVIYVNSKTWYANWAKGRFTISKDNSKNTVYLQMNSLRAEDTATYYCARGDAGYTTNSWLWGQGTLVTVSSASTKGPSVFPLAPSSKSTSGGTAALGCLVKDYFPEPVTVSWNSGALTSGVHTFPAVLQSSGLYSLSSVVTVPSSSLGTQTYICNVNHKPSNTKVDKRVEPKSCDKTHTCPPCPAPEFEGGPSVFLFPPKPKDTLMISRTPEVTCVVVAVSHEDPEVKFNWYVDGVEVHNAKTKPREEQYNSTYRVVSVLTVLHQDWLNGKEYKCKVSNKALPAPIEKTISKAKGQPREPQVYTLPPSREEMTKNQVSLTCLVKGFYPSDIAVEWESNGQPENNYKTTPPVLDSDGSFFLYSRLTVDKSRWQQGNVFSCSVMHEALHNHYTQKSLSLSPGK VL: DIQLTQSPSSLSASVGDRVTITCQASESIDNYLSWYQQKPGKAPKLLIYQAFKLASGVPSRFRGSGSGTDFTLTISSLQPEDFATYYCQSYSGISTTAFGGGTKVEIK |
| 1.6 | 0.00088 | 540000 | IgG1-ROR2-A-HC5LC1-FEAR (antibody, V domains shown, Humanized variant) VH: EVQLLESGGGLVQPGGSLRLSCAASGFSLSSYSMSWVRQAPGKGLEWIGVIYVNSKTWYANWAKGRFTISKDNSKNTVYLQMNSLRAEDTATYYCARGDAGYTTNSWLWGQGTLVTVSS VL: AFELTQSPSSLSASVGDRVTITCQASESIDNYCSWYQQKPGKAPKLLIYQAFKLASGVPSRFRGSGSGTDFTLTISSLQSEDFATYYCQSYSGISTTAFGGGTEVVIK |
| 1.8 | 0.00097 | 550000 | IgG1-ROR2-A-HC5LC2-FEAR (antibody, V domains shown, Humanized variant) VH: EVQLLESGGGLVQPGGSLRLSCAASGFSLSSYSMSWVRQAPGKGLEWIGVIYVNSKTWYANWAKGRFTISKDNSKNTVYLQMNSLRAEDTATYYCARGDAGYTTNSWLWGQGTLVTVSS VL: AFELTQSPSSLSASVGDRVTITCQASESIDNYLSWYQQKPGKAPKLLIYQAFKLASGVPSRFRGSGSGTDFTLTISSLQSEDFATYYCQSYSGISTTAFGGGTEVVIK |
| 1.5 | 0.00092 | 620000 | IgG1-ROR2-A-HC4LC4-FEAR (antibody, Humanized variant) heavy: EVQLLESGGGLVQPGGSLRLSCTVSGFSLSSYSMSWVRQAPGKGLEWIGVIYVNSKTWYANWAKGRFTISKDNSKNTVYLQMNSLRAEDTATYYCARGDAGYTTNSWLWGQGTLVTVSSASTKGPSVFPLAPSSKSTSGGTAALGCLVKDYFPEPVTVSWNSGALTSGVHTFPAVLQSSGLYSLSSVVTVPSSSLGTQTYICNVNHKPSNTKVDKRVEPKSCDKTHTCPPCPAPEFEGGPSVFLFPPKPKDTLMISRTPEVTCVVVAVSHEDPEVKFNWYVDGVEVHNAKTKPREEQYNSTYRVVSVLTVLHQDWLNGKEYKCKVSNKALPAPIEKTISKAKGQPREPQVYTLPPSREEMTKNQVSLTCLVKGFYPSDIAVEWESNGQPENNYKTTPPVLDSDGSFFLYSRLTVDKSRWQQGNVFSCSVMHEALHNHYTQKSLSLSPGK VL: DIQLTQSPSSLSASVGDRVTITCQASESIDNYLSWYQQKPGKAPKLLIYQAFKLASGVPSRFRGSGSGTDFTLTISSLQPEDFATYYCQSYSGISTTAFGGGTKVEIK |
| 3.9 | 0.0022 | 560000 | IgG1-ROR2-A-HC6LC2-FEAR (antibody, V domains shown, Humanized variant) VH: EVQLLESGGGLVQPGGSLRLSCTVSGFSLSSYSMSWVRQAPGKGLEWIGVIYVNSKTWYADSVKGRFTISKDNSKNTVYLQMNSLRAEDTATYYCARGDAGYTTNSWLWGQGTLVTVSS VL: AFELTQSPSSLSASVGDRVTITCQASESIDNYLSWYQQKPGKAPKLLIYQAFKLASGVPSRFRGSGSGTDFTLTISSLQSEDFATYYCQSYSGISTTAFGGGTEVVIK |
| 1.7 | 0.00084 | 510000 | IgG1-ROR2-A-HC5LC3-FEAR (antibody, Humanized variant) heavy: EVQLLESGGGLVQPGGSLRLSCAASGFSLSSYSMSWVRQAPGKGLEWIGVIYVNSKTWYANWAKGRFTISKDNSKNTVYLQMNSLRAEDTATYYCARGDAGYTTNSWLWGQGTLVTVSSASTKGPSVFPLAPSSKSTSGGTAALGCLVKDYFPEPVTVSWNSGALTSGVHTFPAVLQSSGLYSLSSVVTVPSSSLGTQTYICNVNHKPSNTKVDKRVEPKSCDKTHTCPPCPAPEFEGGPSVFLFPPKPKDTLMISRTPEVTCVVVAVSHEDPEVKFNWYVDGVEVHNAKTKPREEQYNSTYRVVSVLTVLHQDWLNGKEYKCKVSNKALPAPIEKTISKAKGQPREPQVYTLPPSREEMTKNQVSLTCLVKGFYPSDIAVEWESNGQPENNYKTTPPVLDSDGSFFLYSRLTVDKSRWQQGNVFSCSVMHEALHNHYTQKSLSLSPGK VL: AFELTQSPSSLSASVGDRVTITCQASESIDNYLSWYQQKPGKAPKLLIYQAFKLASGVPSRFRGSGSGTDFTLTISSLQPEDFATYYCQSYSGISTTAFGGGTKVEIK |
| 1.5 | 0.00087 | 580000 | IgG1-ROR2-A-HC3LC4-FEAR (antibody, Humanized variant) heavy: EVQLLESGGGLVQPGGSLRLSCTVSGFSLSSYSMSWVRQAPGKGLEWIGVIYVNSKTWYANWAKGRFTISKTSTTVYLQMNSLRAEDTATYYCARGDAGYTTNSWLWGQGTLVTVSSASTKGPSVFPLAPSSKSTSGGTAALGCLVKDYFPEPVTVSWNSGALTSGVHTFPAVLQSSGLYSLSSVVTVPSSSLGTQTYICNVNHKPSNTKVDKRVEPKSCDKTHTCPPCPAPEFEGGPSVFLFPPKPKDTLMISRTPEVTCVVVAVSHEDPEVKFNWYVDGVEVHNAKTKPREEQYNSTYRVVSVLTVLHQDWLNGKEYKCKVSNKALPAPIEKTISKAKGQPREPQVYTLPPSREEMTKNQVSLTCLVKGFYPSDIAVEWESNGQPENNYKTTPPVLDSDGSFFLYSRLTVDKSRWQQGNVFSCSVMHEALHNHYTQKSLSLSPGK VL: DIQLTQSPSSLSASVGDRVTITCQASESIDNYLSWYQQKPGKAPKLLIYQAFKLASGVPSRFRGSGSGTDFTLTISSLQPEDFATYYCQSYSGISTTAFGGGTKVEIK |
| 3.1 | 0.0017 | 560000 | IgG1-ROR2-A-HC6LC1-FEAR (antibody, V domains shown, Humanized variant) VH: EVQLLESGGGLVQPGGSLRLSCTVSGFSLSSYSMSWVRQAPGKGLEWIGVIYVNSKTWYADSVKGRFTISKDNSKNTVYLQMNSLRAEDTATYYCARGDAGYTTNSWLWGQGTLVTVSS VL: AFELTQSPSSLSASVGDRVTITCQASESIDNYCSWYQQKPGKAPKLLIYQAFKLASGVPSRFRGSGSGTDFTLTISSLQSEDFATYYCQSYSGISTTAFGGGTEVVIK |
